Data reported in patent US20120201794A1.

What was measured:
[1] = biological target: C46 protein (membrane anchored fusion inhibitor derived from the C-terminal heptad repeat of HIV gp41 fused with a human immunoglobulin hinge region and a CD34 transmembrane domain) (HIV gp41 heptad repeat fused to human immunoglobulin hinge and CD34 transmembrane domain); experiment: flow cytometry, 2F5 staining of Molt4/CCR5 cells transduced with the C46 lentiviral construct (untransduced background 344.6)
[2] = biological target: C46 protein (membrane anchored fusion inhibitor derived from the C-terminal heptad repeat of HIV gp41 fused with a human immunoglobulin hinge region and a CD34 transmembrane domain) (HIV gp41 heptad repeat fused to human immunoglobulin hinge and CD34 transmembrane domain); experiment: flow cytometry, 2F5 staining of Molt4/CCR5 cells transduced with the sh5/C46 lentiviral construct (untransduced background 344.6)

2F5 antibody
MFI [1]: 1450 | MFI [2]: 1170
